{"source": "patent US20100021899", "molecular_target": "alpha-PrP (prion protein, alpha form) (UniProt P04156)", "experiment": "SPR", "details": "PBS pH 7.0, room temperature", "data": [{"sequence": "GTTCGGCACTTGGGCCCTTTTCTGTGTCTTTCTGTGCCCTTAGATAGTATGTGCAATCA [CaAp-3]", "values": [{"measurement": "Kd", "value": 116, "unit": "nM"}]}]}
